# Test system: K4 kissing-loop RNA reporter
# Assay: apparent KD of K4 kissing-loop reporter; higher = weaker reporter binding
# Conditions: Eterna round: R107
# Procedure: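 RNA-MaP round R107: designed RNA switches with theophylline, tryptophan, arginine or FMN aptamers are transcribed on-chip within common flanks. They are titrated with a labelled K4 kissing-loop RNA reporter in RNA-MaP buffer (100 mM Tris pH 7.5, 80 mM KCl, 4 mM MgCl2), without ligand or with the indicated ligand. Median apparent KD per design.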
# [1] = input ligand: theophylline 20 uM
# [2] = input ligand: tryptophan 2.4 mM
# 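Further: bound reporter read as fluorescence of individual clusters on recovered sequencing chips by microscopy, with normalized cluster intensities fitted with a binding model.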
Sequence,apparent KD of K4 kissing-loop reporter (input ligand: FMN 200 uM) [nM],apparent KD of K4 kissing-loop reporter (input ligand: arginine 13.2 mM) [nM],apparent KD of K4 kissing-loop reporter (input ligand: none) [nM],apparent KD of K4 kissing-loop reporter [1] [nM],apparent KD of K4 kissing-loop reporter [2] [nM]
GGCAUGGUGACGCGGCUGCCAUGCACUUGGGAGGAUAUGUUUCGUGACAGAAGGCCCAGUGAUGUUGGGUCUGUUCAAAAGGACU [Lerere],434,135,146,148,119
GGCCCGGGCGCGGCCGCCACUCCCUCGUACCGAAAGGUAUGAUACCGAGUGAUGUUCGGUUGGAGGAGGACCGGGCGCCCGGGCC [#2 Exclusion - Tryptophan B Attempt #4 (HarryS)],140,129,105,80.7,152
GGCGGCCGCGCGUAAGCGCGGCCGGCCGAUACCAGCGCGACGGCGCGCCCUUGGCAGCGGCGCCGAGUGAUGUUCGGCCUGCCGG [#2 Same State - Theophylline A Attempt #17 (HarryS)],376,381,441,465,596
GGGAAGAAGGCGGCCGCCACUGCAGAAGAGACAGAGAGAGAAGAAGAGGAGUGAUGUUCCAAGAACAGGACCGGGCCAAGAAGGG [whbob_SS_Tryp_B_t28],167,84.2,102,146,129
GGGACGCUAGCUCGAAUGUAGUGAUUUGAUACCAGCCUGUCACUUGGCCCUUGGCAGCAAAGCAGAGUGAUGUUCUGACCAACCU [theeternabot_sameState_KL_Theo_A_47],189,298,235,346,144
GGGAGGAACUGAGGAUAUUCGAAGAAAUAUAGUGAUGUUAUGUAAGGAGGAGGAGGGAGGGAGGAAGGAGAAGGCAGAAGAGGAG [ExFMNB.A],428,415,500,294,433
GGGAGUAGUGCGGCCGCCACUGAGAAAGAAGAAGAAUAUAGUGAUGUUAUAUAGGAAAGGAAGAACAGGACCGGGCAUUAGAUUU [SSTRyptB.F],232,220,251,232,180
GGGAGUAGUGCGGCCGCCACUGAGAAAGAAGAAGAUUGUAGUGAUGUUAUGGAGGAAAGGAAGAACAGGACCGGGCAUUAGAUUU [SSTRyptB.I],1080,735,231,651,684
GGGAGUGAUGUUCCCACGUUGUCGGUCCUUCGAGGACCGGUACGGCCGCCACUCGCGACCCAGUGAUGUUGGGAUUCACCGUACC [Exclusion Tryptophan A Gf 13],431,421,471,506,409
GGGCCUAUUGAUGCUGGAGUAAUUCUGGAAGGAGCGCUCAAAGGAGCAGGUAGGUCGCCAGUAUACAAGGGCAGUGAUGUUGCCC [Entimalati],143,162,161,146,142
GGGCGGCAGACGGCCGCCACUCAUAGCAGCCAGUGAGUGAUGUUCGUGGCGGAGUGAUGUUCCUAGAGGACCGGGUUUGUUGUUC [Same State Tryptophan B GF 19],551,354,464,471,596
GGGUGGCAGGCGGCCGCCACUCUGAGCACCCACUGAGUGAUGUUCGUGGCGUAAGCCUGUUCGUAGAGGACCGGGUUUGUUGUUC [Exclusion Tryptophan B GF 15],413,162,300,281,230
GGGUGGGUGCGAGGAUAUGGAGUGAUGUUCCAAAAGAAAAGAAGAGAAGAGAAAGAGAGAAAGAAACCAGAAGGCGCGUCCGUCC,115,123,193,238,141
GGUAGCAUGGCGGCCGCCACUCAUCGCCUCCCAUCGUCGGGAAGAAUAAGUGUAGUGAUGUUACAGAGGACCGGGCCAUGCUACC,472,386,898,494,268
GGUAGCAUGGCGGCCGCCACUGAGCAAGUGAUGUUUGCCUCCCUACCCUAGUGUCGAGAGUAUAUCAGGACCGGGCCAUGCUACC,188,132,149,164,136
GGUAGCAUGGCGGCCGCCACUUACUUCAAUAGGAGUGAUGUUCCUAUUACUAGUAGUGAAAUAAUAAGGACCGGGCCAUGCUACC,103,87.9,95.2,82.8,96.8
GGUAGCGCUAGAGAUACCAGUCAUAUCGCUCUGGAGUGAUGUUCCGGAACGUGCGGAGAAGACCCUUGGCAGCUCAUGACGGUGU [Exclusion Theophylline B GF 4],210,194,224,281,214
GGUAGCUAGGUAGGAUAUAGCUAGUGGAGUGAUGUUCCACGAUACACGAGUGAUGUUCGUACCCUGCUAGAAGGGCCUAGCUACC,114,159,168,172,161
GGUCCGGGCUCGGCCGCCACUCCCUCCUGCCGUAAGGUGGGAUACCGAGUGAUGUUCGGUUGGAGGAGGACCGGGAGCCCGGACC [#2 Exclusion - Tryptophan B Attempt #15 (HarryS)],165,113,122,105,107
GGUCGAGUGAUGUUCGAUGUUAUGCAUUCAGAGGAUAUAGGAUUGGCUAGAAGGCUGAAUCGAUCUUCGAGUGAUGUUCGAGGAU [Same State FMN A GF 8],116,112,117,101,128
GGUCUGCCGCAGUGAUGUUGCUGGCAUACACGAGGACCGGUACGGCCGCCACUCGAUGCUCCAAGAACCACCAAUCUUCGGUAUC [theeternabot_sameState_KL_Trp_A_48],257,235,229,236,236
GGUGACAACCAGAGGUGAUGUAUAGAAUAGCGAGGACCGGUACGGCCGCCACUCGUGAAGAGAAAGGAGUGAUGUUCCGUAAUGG [Kazoo C5],330,298,453,485,166

Sequence,apparent KD of K4 kissing-loop reporter (input ligand: FMN 200 uM) [nM],apparent KD of K4 kissing-loop reporter (input ligand: arginine 13.2 mM) [nM],apparent KD of K4 kissing-loop reporter (input ligand: none) [nM],apparent KD of K4 kissing-loop reporter [1] [nM],apparent KD of K4 kissing-loop reporter [2] [nM]
GGUGACAGCCAGGAGUGAUGUAUAGAAUAGCGAGGACCGGUACGGCCGCCACUCGUGAAGAGAAGGGAGUGAUGUUCCGUAAUGG [Kazoo C],627,185,170,386,140
GGUGCUGUCUGUGCCGCCUUCCUCGUUCCUCGAGGACCGGUACGGCCGCCACUCGAGUGAUGUUUGGGUAGCGAUCCCUGCUAGC [Bdazzled - #15 Exc. Tryptophan A],1010,737,1180,1030,917
GGUUAAUAGGAGGAUACCAGUACGAAUAAAGUACAUUAAUAGUAGAGUGAUGUUCUAAAGUACCCUUGGCAGCUUAGAGUUAGUU [#19 K4 Theophylline B Exclusion],128,216,169,257,102
GGUUUAUAGGAGGAUACCAGUACGGAUAAAGUACGUUAAUAGUAGAGUGAUGUUCUAAAGUACCCUUGGCAGCUUAGAGUGAGUU [ExTheophylB.L],105,157,122,159,78.8
GUAAGACCGGGACUCCAGUGAUGUUGGAGGCAGGAUAUCCAGUCGAGGAGAAGGGCCAGGGAUAUCGAGCUGCUCGGUUUGUAGU [Argeis],81.9,69.5,93.6,78.9,56.2
GUACCGCGUGCGGCCGCCACUACAUCAAUUACCUAAGCCUAGUGAUGUUGGGUUUUUGCUACAGGUAGGACCGGGCAGAUGUAUG [theeternabot_sameState_KL_Trp_B_38],292,225,307,263,270
GUACCUUGGAAACAAGGACAGCUCACCGAAGGAGCGCGUGAAAACGCAGGUAGGUCGCGGUAGCGGAGUGAUGUUCCGCGAGGGC [Same State Arginine A GF 20],114,99.5,100,112,106
GUAGCACUCGGUAGUGAUGUUAUCGAGGACAAGGAUAUCAUCUCAAUGAGAAGGUGUCCUUGAUAACAGCUACGGGAAUAUCCCA [Omei KL FMN A Exc D v4],386,117,134,120,127
GUAGCCCUAUGUGAUACCAGACGGUAUAAAAUCCUGGCGGCCAGUGAUGUUGGCCAUCGCGUCCCUUGGCAGCACCAAGGCUGUA [theeternabot_sameState_KL_Theo_B_18],122,143,142,118,114
GUAGGAUGAGGAGGAGGAUGAAUUACUGAAGGAGCGCAUAUUAAUGCAGGUAGGUCGCGGUAAAGAAGUAUAGUGAUGUUAUAUA [SSArgA.H],238,538,589,399,234
GUAGGCUACCGAGGAUAUAGUCCAACGGAGUGAUGUUCCGUCUUUCUUCAUCAUUAACGUUGUGAUCUAGAAGGCGGUAGCCUAC,120,440,723,529,687
GUAUCGCUAGGAGGAUAUUCCGUUUUUCAUAGCAAUGGCUAUGCGGAGUGAUGUUCCGAUUUACCGGAAGAAGGCCUAGUGAUAC [FMN B 24],108,139,128,148,114
GUAUCGCUAGGAGGAUAUUUCAAAUAAUAAAUAAAUGGUUAUACGGAGUGAUGUUCCGAUUUACGGAAAGAAGGCCUAGUGAUAC [FMN B 3],118,144,155,153,147
GUAUCGCUAGGAGGAUAUUUCAAAUCGCCAAUAAAUGGUGAUACGGAGUGAUGUUCCGAUUUACGGAAAGAAGGCCUAGUGAUAC [FMN B 6],135,269,322,288,268
GUAUCGCUAGGAGGAUAUUUCAAUUUGACUCUUUGAGUUAAUACGGAGUGAUGUUCCGAUUUACGGAAAGAAGGCCUAGUGAUAC [FMN B 13],123,203,238,219,210
GUAUCGCUAGGAGGAUAUUUCGUUUUUCAUAGCAAUGGCUAUGCGGAGUGAUGUUCCGAUUUACCGAAAGAAGGCCUAGUGAUAC [FMN B 25],95.2,87.8,99.2,103,98.8
GUGAAGGAGCUGCAGUGAUGUUGCAGAGACUAGGAUAUCAGGAAACUGAGAAGGAGUCAACUCCUUCACCUAGACACUGCAGAAA [[F]''-[K1]-[K2]-[F1]-[F2]-[F2]'-[F1]'-[K]'_Design1],110,108,128,170,143
GUGAGGAGUGGUGUUGAUUAGGGAGCGGAAGGAGCGCCGAGGAAGGCAGGUAGGUCGCCGGAUUAUAGUGAUGUUAUGAAGAGGG [ExArg.K],482,523,551,886,338
GUGCGGCUAGUGAUGUUGGUUGCGUGGGAAGGAGCGCAGUAAAAUGCAGGUAGGUCGCCCGCAUCUCUGAUAAAAGAUUAAUUCA [KL-SSArg-A9],276,196,228,238,228
GUGGGCAUAGCAGGAUAUCCAUAUUAACAGGAGUCCUCGCCAGUGAUGUUGGAAAGGUACCGGAGUGGAGAAGGGCUCCUACGUA [Anbiratien],594,782,813,757,515
GUGGUACAGGCGGCCGCCACUAGUGAUGUUAGUGAUAGAAGAUAUAGUAUAUAUCGGCAUUUAGUUAGGACCGGGCCUGGUGGUG [wwwrcmullin],424,316,360,367,337
GUUACGCAUGGAAGGAGCGCACUCCGGUUGAUCAACACAGUGAUGUUGUGGUUCAUUCGAAUGCAGGUAGGUCGCCAUGUGUAAC [Ex Arginine B K4 16],877,724,1100,858,825

# Source: the supplement of paper PMC9170038
